Drawing on patent US20170204167A1, this text covers neutralization of H7 pseudovirus, IC50 and EC50 for 3 substances.

One may read the EC50 as the midpoint of the concentration-response curve.

In experiment [1] the target is HA of H7 pseudovirus (A/chicken/Italy/99) in which the glycosylation site (Asn-38) was removed (influenza A virus H7 A/chicken/Italy/99). The experiment in a line: cell-based or functional assay.
Experiment [2] has as its target HA of H6N5 A/shearwater/Australia/1/72 (influenza A virus H6N5 A/shearwater/Australia/1/72). Kind of experiment: ELISA on recombinant or purified HA. (In general: ELISA stands for enzyme-linked immunosorbent assay.)
Experiment [3] concerns the target HA of H5N1 A/Viet Nam/1/05 (influenza A virus H5N1 A/Viet Nam/1/05). The experiment in a line: ELISA on recombinant or purified HA.
Experiment [4] has as its target HA of H5N1 A/Viet Nam/1203/04 (influenza A virus H5N1 A/Viet Nam/1203/04). The experiment in a line: ELISA on recombinant or purified HA.
Experiment [5] has as its target HA of H13N6 A/gull/Maryland/704/77 (ELISA antigen) (influenza A virus H13N6 A/gull/Maryland/704/77) (UniProt P13103). The experiment in a line: ELISA on recombinant or purified HA.
Experiment [6] concerns the target HA of H8N4 A/Alberta/357/84 (influenza A virus H8N4 A/Alberta/357/84). The experiment in a line: ELISA on recombinant or purified HA.
In experiment [7] the target is HA of H4N6 A/duck/Czechoslovakia/56 (ELISA antigen) (influenza A virus H4N6 A/duck/Czechoslovakia/56) (UniProt P19696). Kind of experiment: ELISA on recombinant or purified HA.
Experiment [8] has as its target HA of H1N1 A/Brisbane/59/07 (influenza A virus H1N1 A/Brisbane/59/07). Kind of experiment: ELISA on recombinant or purified HA.
Experiment [9] has as its target HA of H3N2 A/Brisbane/10/07 (influenza A virus H3N2 A/Brisbane/10/07). The experiment in a line: ELISA on recombinant or purified HA.
For experiment [10], the target named is HA of H10N4 A/mink/Sweded/3900/84 (influenza A virus H10N4 A/mink/Sweded/3900/84). Kind of experiment: ELISA on recombinant or purified HA.
Experiment [11] deals with HA of H9 A/HK/1073/99 (influenza A virus H9N2 A/Hong Kong/1073/99). Kind of experiment: ELISA on recombinant or purified HA.
The target in experiment [12] is HA of H2N2 A/Singapore/1/57 (influenza A virus H2N2 A/Singapore/1/57) (UniProt Q67333). The experiment in a line: ELISA on recombinant or purified HA.
Experiment [13] deals with HA of H3N2 A/New York/55/04 (influenza A virus H3N2 A/New York/55/04). The experiment in a line: ELISA on recombinant or purified HA.
In experiment [14] the target is HA of H3N2 A/Wyoming/3/03 (influenza A virus H3N2 A/Wyoming/3/03). The experiment in a line: ELISA on recombinant or purified HA.
For experiment [15], the target named is HA of H7N3 A/Canada/444/04 (influenza A virus H7N3 A/Canada/444/04). Kind of experiment: ELISA on recombinant or purified HA.

A value given as a limit tells only on which side of the number the result lay.

As for CR6261 (antibody), the neutralization of H7 pseudovirus, IC50 in experiment [1] was more than 50 µg/mL.

F10 (antibody) registered a neutralization of H7 pseudovirus, IC50 in experiment [1] of more than 50 µg/mL.

For the substance ctr (control antibody of Table 8), the EC50 in experiment [2], in experiment [3], in experiment [4], in experiment [5], in experiment [6] and in experiment [7] was more than 20 µg/mL each time. Besides, the EC50 in experiment [8], in experiment [9], in [10], in experiment [11], in experiment [12] and in experiment [13] was more than 20 µg/mL each time. The EC50 in experiment [14] and in experiment [15] was more than 20 µg/mL each time.
